Where two headings read alike, the source gives them in different places.
B1: Recombinant Fc-his-tag-E-cadherin (extracellular portion) (Fc fusion, UniProt P12830 155-709, looked up)
chain: DWVIPPISCPENEKGPFPKNLVQIKSNKDKEGKVFYSITGQGADTPPVGVFIIERETGWLKVTEPLDRERIATYTLFSHAVSSNGNAVEDPMEILITVTDQNDNKPEFTQEVFKGSVMEGALPGTSVMEVTATDADDDVNTYNAAIAYTILSQDPELPDKNMFTINRNTGVISVVTTGLDRESFPTYTLVVQAADLQGEGLSTTATAVITVTDTNDNPPIFNPTTYKGQVPENEANVVITTLKVTDADAPNTPAWEAVYTILNDDGGQFVVTTNPVNNDGILKTAKGLDFEAKQQYILHVAVTNVVPFEVSLTTSTATVTVDVLDVNEAPIFVPPEKRVEVSEDFGVGQEITSYTAQEPDTFMEQKITYRIWRDTANWLEINPDTGAISTRAELDREDFEHVKNSTYTALIIATDNGSPVATGTGTLLLILSDVNDNAPIPEPRTIFFCERNPKPQVINIIDADLPPNTSPFTAELTHGASANWTIQYNDPTQESIILKPKMALEVGDYKINLKLMDNQNKDQVTTLEVSVCDCEGAAGVCRKAQPVEAGLQIPA
B2: Recombinant angiopoietin-like 6 (ligand, UniProt Q8NI99 21-470, looked up)
chain: RAGAPRCTYTFVLPPQKFTGAVCWSGPASTRATPEAANASELAALRMRVGRHEELLRELQRLAAADGAVAGEVRALRKESRGLSARLGQLRAQLQHEAGPGAGPGADLGAEPAAALALLGERVLNASAEAQRAAARFHQLDVKFRELAQLVTQQSSLIARLERLCPGGAGGQQQVLPPPPLVPVVPVRLVGSTSDTSRMLDPAPEPQRDQTQRQQEPMASPMPAGHPAVPTKPVGPWQDCAEARQAGHEQSGVYELRVGRHVVSVWCEQQLEGGGWTVIQRRQDGSVNFFTTWQHYKAGFGRPDGEYWLGLEPVYQLTSRGDHELLVLLEDWGGRGARAHYDGFSLEPESDHYRLRLGQYHGDAGDSLSWHNDKPFSTVDRDRDSYSGNCALYQRGGWWYHACAHSNLNGVWHHGGHYRSRYQDGVYWAEFRGGAYSLRKAAMLIRPLKL

Columns and labels:
Experiment in all cases: SPR
[1] = molecular target: T1, Recombinant his-tag-α6β4 integrin (extracellular portions) (UniProt P23229-2 24-1011; P16144 28-710)
[2] = molecular target: B1
[3] = molecular target: T1, Recombinant his-tag-α6β4 integrin …; remark: listed apart in the source

Row | Kd [1] | Kd [2] | Kd [3] | Binder
1 | 5.3 to 16.8 nM |  |  | B1
2 |  | 29 nM | 2.03 nM | B2

— publication PMC3494873 (EMBO Molecular Medicine, 2012)
